± gives the standard deviation of the averaged measurements.
Experiments:
Saccharomyces cerevisiae [1] = assay: protein stability index of tFT-peptide fusion (C-terminal peptide) (PSI (0-1 scale)); higher = more stable (slower turnover)
Experimental: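 MPS profiling in S. cerevisiae of the tFT-X12 degron library: putative degron peptides plus stable controls, 12 aa, fused to the C-terminus of a sfGFP-mCherry timer. Cells are FACS-sorted into 8 mCherry/sfGFP bins and deep-sequenced. PSI runs from 0 (unstable) to 1 (stable). Backgrounds are wild type, das1Δ and doa10Δ at 30 °C, and wild type, das1Δ, cdc34-1 and cdc53-1 at 37 °C; 2-3 technical replicates each.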

Saccharomyces cerevisiae [2] = assay: as above; conditions: genetic background: wild type; temperature: 30 C
[3] = genetic background: cdc34-1, temperature: 37 C
[4] = genetic background: cdc53-1, temperature: 37 C
[5] = genetic background: das1 deletion, temperature: 30 C
[6] = genetic background: das1 deletion, temperature: 37 C
[7] = genetic background: doa10 deletion, temperature: 30 C
[8] = genetic background: wild type, temperature: 30 C
[9] = genetic background: wild type, temperature: 37 C
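Note: PSI is a weighted mean of sequencing reads over stability bins, variants kept only with over 10 reads, mCherry proximal and sfGFP distal, peptide attached via GGGS linker.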

| Sequence | protein stability index (Saccharomyces cerevisiae [1]; [3]) | protein stability index (Saccharomyces cerevisiae [1]; [4]) | protein stability index (Saccharomyces cerevisiae [1]; [5]) | protein stability index (Saccharomyces cerevisiae [1]; [6]) | protein stability index (Saccharomyces cerevisiae [1]; [7]) | protein stability index (Saccharomyces cerevisiae [1]; [8]) | protein stability index (Saccharomyces cerevisiae [1]; [9]) | protein stability index (Saccharomyces cerevisiae [2]) |
| --- | --- | --- | --- | --- | --- | --- | --- | --- |
| KALFPGLLLCAF | 0.168 ± 0.0027 | 0.188 ± 0.0038 | 0.239 ± 0.02 | 0.292 ± 0.012 | 0.204 ± 0.0091 | 0.232 ± 0.022 | 0.268 ± 0.017 | 0.307 ± 0.014 |
| KLLDHFVKIRVY | 0.164 ± 0.021 | 0.2 ± 0.0077 | 0.225 ± 0.044 | 0.416 ± 0.0072 | 0.0632 ± 0.0066 | 0.0674 ± 0.024 | 0.0534 ± 0.03 | 0.0988 ± 0.0069 |
| KLRELQVRQQLS | 0.648 ± 0.1 | 0.677 ± 0.015 | 0.635 ± 0.03 | 0.7272 ± 0.0049 | 0.189 ± 0.021 | 0.199 ± 0.025 | 0.413 ± 0.017 | 0.382 ± 0.02 |
| LAEHIFLVLDHG | 0.451 ± 0.026 | 0.485 ± 0.013 | 0.428 ± 0.0085 | 0.499 ± 0.0062 | 0.463 ± 0.024 | 0.432 ± 0.0071 | 0.478 ± 0.0089 | 0.453 ± 0.013 |
| LAISTIQMFKRI | 0.677 ± 0.049 | 0.718 ± 0.04 | 0.624 ± 0.017 | 0.718 ± 0.018 | 0.295 ± 0.021 | 0.327 ± 0.022 | 0.568 ± 0.038 | 0.38 ± 0.019 |
| LAKPTVRKIICV | 0.41 ± 0.0086 | 0.387 ± 0.025 | 0.301 ± 0.049 | 0.4672 ± 0.0038 | 0.263 ± 0.017 | 0.296 ± 0.04 | 0.421 ± 0.0089 | 0.419 ± 0.007 |
| LAPSRNRSVWLV | 0.591 ± 0.015 | 0.7308 ± 0.002 | 0.649 ± 0.016 | 0.74 ± 0.0098 | 0.104 ± 0.012 | 0.119 ± 0.018 | 0.199 ± 0.0086 | 0.247 ± 0.036 |
| LASFCSVCIFIS | 0.224 ± 0.0054 | 0.31 ± 0.014 | 0.238 ± 0.017 | 0.429 ± 0.0071 | 0.099 ± 0.0025 | 0.127 ± 0.033 | 0.17 ± 0.012 | 0.163 ± 0.029 |
| LASWVVFIWFLW | 0.253 ± 0.026 | 0.348 ± 0.012 | 0.278 ± 0.018 | 0.41 ± 0.01 | 0.281 ± 0.031 | 0.25 ± 0.043 | 0.423 ± 0.041 | 0.329 ± 0.077 |
| LCFLVALASMLF | 0.5426 ± 0.0019 | 0.579 ± 0.038 | 0.472 ± 0.036 | 0.549 ± 0.018 | 0.4385 ± 0.0032 | 0.462 ± 0.026 | 0.5246 ± 0.00074 | 0.504 ± 0.01 |
| LCFVCLWGYLGV | 0.388 ± 0.023 | 0.471 ± 0.011 | 0.322 ± 0.034 | 0.528 ± 0.023 | 0.307 ± 0.0054 | 0.323 ± 0.022 | 0.4791 ± 0.0038 | 0.479 ± 0.044 |
| LCFVFVLGFFAF | 0.379 ± 0.058 | 0.4836 ± 0.0019 | 0.349 ± 0.031 | 0.488 ± 0.0085 | 0.319 ± 0.011 | 0.334 ± 0.012 | 0.501 ± 0.022 | 0.421 ± 0.017 |
| LCTCFLVLLLWC | 0.387 ± 0.032 | 0.404 ± 0.02 | 0.339 ± 0.024 | 0.46 ± 0.01 | 0.34 ± 0.01 | 0.315 ± 0.018 | 0.4407 ± 0.0027 | 0.337 ± 0.1 |
| LCVFRFFLFFFL | 0.35 ± 0.012 | 0.371 ± 0.034 | 0.327 ± 0.032 | 0.461 ± 0.012 | 0.364 ± 0.019 | 0.291 ± 0.027 | 0.427 ± 0.016 | 0.402 ± 0.054 |
| LDFPPLRLILRL | 0.601 ± 0.019 | 0.609 ± 0.0072 | 0.584 ± 0.035 | 0.6464 ± 0.0014 | 0.658 ± 0.017 | 0.538 ± 0.049 | 0.6071 ± 0.0026 | 0.538 ± 0.064 |
| LEPFTGYTVIVM | 0.165 ± 0.045 | 0.185 ± 0.015 | 0.232 ± 0.045 | 0.331 ± 0.021 | 0.189 ± 0.0054 | 0.236 ± 0.034 | 0.261 ± 0.032 | 0.334 ± 0.048 |
| LFDVLFVFSFIF | 0.4681 ± 0.0013 | 0.524 ± 0.006 | 0.413 ± 0.017 | 0.535 ± 0.015 | 0.432 ± 0.034 | 0.42 ± 0.024 | 0.503 ± 0.019 | 0.449 ± 0.045 |
| LFFASFLLIGPF | 0.4091 ± 0.0033 | 0.4803 ± 0.003 | 0.375 ± 0.039 | 0.499 ± 0.014 | 0.354 ± 0.03 | 0.321 ± 0.037 | 0.483 ± 0.041 | 0.393 ± 0.0098 |
| LFFFFLPHLILL | 0.3403 ± 0.00055 | 0.321 ± 0.041 | 0.321 ± 0.046 | 0.4803 ± 0.004 | 0.404 ± 0.058 | 0.26 ± 0.028 | 0.395 ± 0.011 | 0.377 ± 0.035 |
